{
  "source": "paper PMC10491184",
  "about": "(bioRxiv, 2023)",
  "binders": {"B1": {"name": "rU12 (ssRNA)", "RNA": "UUUUUUUUUUUU"}, "B2": {"name": "dC15 (ssDNA)", "DNA": "CCCCCCCCCCCCCCC"}, "B3": {"name": "Escherichia coli Rof, wildtype, tag-less (natural protein, E. coli)", "chain": "MNDTYQPINCDDYDNLELACQHHLMLTLELKDGEKLQAKASDLVSRKNVEYLVVEAAGETRELRLDKITSFSHPEIGTVVVSES"}},
  "key": {"[1]": {"biological_target": "T1, Rho (transcription termination factor) wt (Escherichia coli, UniProt P0AG30 1-419)", "assay": "fluorescence anisotropy"}, "[2]": {"biological_target": "Rho (transcription termination factor) wt;Rof D14A (Escherichia coli;Escherichia coli, UniProt P0AG30;P0AFW8 1-419;1-84, |D14A)", "assay": "fluorescence anisotropy"}, "[3]": {"biological_target": "Rho (transcription termination factor) wt;Rof Y13A (Escherichia coli;Escherichia coli, UniProt P0AG30;P0AFW8 1-419;1-84, |Y13A)", "assay": "fluorescence anisotropy"}, "[4]": {"biological_target": "T1, Rho (transcription termination factor) …", "assay": "fluorescence anisotropy", "remark": "listed apart in the source"}, "[5]": {"biological_target": "Escherichia coli transcription termination factor ρ, wildtype (E. coli, UniProt P0AG30 1-419)", "assay": "cryo-EM structure"}, "[6]": {"biological_target": "Escherichia coli transcription termination factor ρ F89S (E. coli, UniProt P0AG30 1-419, F89S)", "assay": "SEC"}, "[7]": {"biological_target": "Escherichia coli transcription termination factor ρ K115E (E. coli, UniProt P0AG30 1-419, K115E)", "assay": "SEC"}},
  "note": "Several values for one entry are separate records, joined by “and”; a condition that tells them apart may be missing. Identical values can stand only once.",
  "data": [
    {"binder": "B1", "values": [
      {"measurement": "binding result", "setting": "[1]", "value": "binds"}
    ]},
    {"binder": "B2", "values": [
      {"measurement": "binding result", "setting": "[2]", "value": "binds"},
      {"measurement": "binding result", "setting": "[3]", "value": "binds"},
      {"measurement": "Kd", "setting": "[4]", "value": 1000, "unit": "nM"}
    ]},
    {"binder": "B3", "values": [
      {"measurement": "stoichiometry N", "setting": "[5]", "value": "5 Rof molecules per ρ hexamer and 4 Rof molecules per ρ pentamer"},
      {"measurement": "binding result", "setting": "[6]", "value": "binds"},
      {"measurement": "binding result", "setting": "[7]", "value": "binds"}
    ]}
  ]
}
